± gives the uncertainty stated by the source.

A short description of the series: self-splicing fitness, log relative to wild type (ln ratio); higher = more splicing; Tetrahymena group I intron in knt gene, E. coli kanamycin selection, DiMSum; sequences stand for … in CUCUCU…GGAGGGAAAAGUUAUCAGGCAUGCACCUGGUAGCUAGUCUUUAAACCAAUAGAUUGCAUCGGUUUAAAAGGCAAGACCGUCAAAUUGCGGGAAAGGGGUCAACAGCCGUUCAGUACCAAGUCUCAGGGGAAACUUUGAGAUGGCCUUGCAAAGGGUAUGGUAAUAAGCUGACGGACAUGGUCCUAACCACGCAGCCAAGUCCUAAGUCAACAGAUCUUCUGUUGAUAUGGAUGCAGUUCACAGACUAAAUGUCGGUCGGGGAAGAUGUAUUCUUCUCAUAAGAUAUAGUCGGACCUCUCCUUAAUGGGAGCUAGCGGAUGAAGUGAUGCAACACUGGAGCCGCUGGGAACUAAUUUGUAUGCGAAAGUAUAUUGAUUAGUUUUGGAGUACUCGUGGUCG
Put shortly:
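A randomised library covering all eight P1ex-region intron nucleotides was built with the intron in the knt kanamycin-resistance gene on pET-22b(+) and held in E. coli BL21(DE3). Cells were grown overnight at 37°C or 30°C on LB agar, with or without 25 μg/mL kanamycin, plus 100 μg/mL carbenicillin, 50 μM IPTG and 0.2% rhamnose, and pooled colonies were amplicon-sequenced on an Illumina HiSeq 2500. DiMSum fitness is the error-weighted combination of wild-type-normalised replicate fold changes, kanamycin versus none.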

Regarding UUAGAGCAAUAUUACGAAGA, the “self-splicing fitness (ln)” value runs as follows: (30 °C) -1.27 ± 0.13; (37 °C) -0.451 ± 0.23. With CAGAAGCAAUAUUACGGCUA, the “self-splicing fitness (ln)” value (30 °C) turned out to be 0.172 ± 0.11 and the “self-splicing fitness (ln)” value (37 °C) is -0.0647 ± 0.084. For the sequence CGCUAGCAAUAUUACGGCGU, the “self-splicing fitness (ln)” value (30 °C) is -4.23 ± 0.42 and the “self-splicing fitness (ln)” value (37 °C) is -2.71 ± 0.21.

On to AAACAGCAAUAUUACGUAAU, for which the “self-splicing fitness (ln)” value runs as follows: (30 °C) -1.79 ± 0.051; (37 °C) -0.491 ± 0.064.

On to CCACAGCAAUAUUACGGUAG, for which the “self-splicing fitness (ln)” value is -0.799 ± 0.046 (30 °C) and -0.163 ± 0.065 (37 °C).

On to CAUCAGCAAUAUUACGACCA, for which the “self-splicing fitness (ln)” value (30 °C) is -1.38 ± 0.19 and the “self-splicing fitness (ln)” value (37 °C) was -1.1 ± 0.19. In the case of AUGCAGCAAUAUUACGGCCU, the “self-splicing fitness (ln)” value came out at 0.794 ± 0.13 (30 °C) and 0.0607 ± 0.16 (37 °C). In the same order, the values of AAUAAGCAAUAUUACGAUUA are -0.789 ± 0.12 and 0.438 ± 0.14.

Consider GCACAGCAAUAUUACGAUGA, for which the “self-splicing fitness (ln)” value reads like this: (30 °C) -0.231 ± 0.076; (37 °C) -0.14 ± 0.078.

Consider CGCUAGCAAUAUUACGCAAG, for which the “self-splicing fitness (ln)” value by setting is: (30 °C) -3.76 ± 0.32; (37 °C) -2.49 ± 0.33. In the same order, the values of CGCAAGCAAUAUUACGCGCC are -3.06 ± 0.21 and -1.54 ± 0.17. For CAAGAGCAAUAUUACGGAAA, the “self-splicing fitness (ln)” value is, setting by setting: (30 °C) -2.9 ± 0.22; (37 °C) -2.82 ± 0.22. Consider UCACAGCAAUAUUACGAUAC, for which the “self-splicing fitness (ln)” value was -3.87 ± 0.26 (30 °C) and -2.75 ± 0.35 (37 °C).

Take UCAAAGCAAUAUUACGAGGA: the “self-splicing fitness (ln)” value is, setting by setting: (30 °C) -2.69 ± 0.15; (37 °C) -0.561 ± 0.13. The like results for UGCAAGCAAUAUUACGUCCA were, in that order, -0.254 ± 0.047 and 0.213 ± 0.07.

Turning to ACUAAGCAAUAUUACGUAGC, the “self-splicing fitness (ln)” value (30 °C) was -2.96 ± 0.16 and the “self-splicing fitness (ln)” value (37 °C) is -1.25 ± 0.13. Take AGCAAGCAAUAUUACGCGUC: the “self-splicing fitness (ln)” value is, setting by setting: (30 °C) -3.61 ± 0.15; (37 °C) -3.06 ± 0.24. Take CGUAAGCAAUAUUACGUUUG: the “self-splicing fitness (ln)” value by setting is: (30 °C) -1.2 ± 0.08; (37 °C) -0.438 ± 0.1. With CCGGAGCAAUAUUACGUCUC, the “self-splicing fitness (ln)” value is, setting by setting: (30 °C) -3.22 ± 0.31; (37 °C) -2.69 ± 0.39.

Turning to UAAAAGCAAUAUUACGUAGU, the “self-splicing fitness (ln)” value is, setting by setting: (30 °C) -3.36 ± 0.12; (37 °C) -2.83 ± 0.14. With GUGCAGCAAUAUUACGUCCA, the “self-splicing fitness (ln)” value is, setting by setting: (30 °C) -1.53 ± 0.28; (37 °C) -0.793 ± 0.27. As to AGCGAGCAAUAUUACGCCUC, the “self-splicing fitness (ln)” value (30 °C) was -1.82 ± 0.3.

On to GUCAAGCAAUAUUACGUGAA, for which the “self-splicing fitness (ln)” value is, setting by setting: (30 °C) -1.01 ± 0.072; (37 °C) 0.556 ± 0.083.

GGCUAGCAAUAUUACGAUUU: the “self-splicing fitness (ln)” value is, setting by setting: (30 °C) -0.855 ± 0.093; (37 °C) 0.68 ± 0.12. The like results for GGAAAGCAAUAUUACGCCUA were, in that order, -1.28 ± 0.18 and -0.669 ± 0.23. On to UCGAAGCAAUAUUACGGCUU, for which the “self-splicing fitness (ln)” value runs as follows: (30 °C) -3.32 ± 0.27; (37 °C) -2.85 ± 0.22. The like results for GACCAGCAAUAUUACGCUGC were, in that order, -3.73 ± 0.22 and -1.32 ± 0.15. The like results for CCUCAGCAAUAUUACGCGCA were, in that order, -3.31 ± 0.27 and -2.74 ± 0.23. Take UGUCAGCAAUAUUACGGCGA: the “self-splicing fitness (ln)” value (30 °C) was -0.34 ± 0.093 and the “self-splicing fitness (ln)” value (37 °C) is -0.0234 ± 0.1. The like results for ACGCAGCAAUAUUACGAUGC were, in that order, -3.44 ± 0.27 and -1.56 ± 0.21. The like results for CGGAAGCAAUAUUACGAUUU were, in that order, -3.62 ± 0.2 and -1.51 ± 0.15. In the same order, the values of UUCAAGCAAUAUUACGGGGG are -3.34 ± 0.26 and -0.739 ± 0.16. For UCGCAGCAAUAUUACGGUGG, the “self-splicing fitness (ln)” value (30 °C) was -3.36 ± 0.18 and the “self-splicing fitness (ln)” value (37 °C) was -2.85 ± 0.21. In the same order, the values of UUACAGCAAUAUUACGGGAU are -3.85 ± 0.21 and -2.69 ± 0.13. The like results for AGGUAGCAAUAUUACGGCUG were, in that order, -1.13 ± 0.016 and -1 ± 0.037. The like results for UAGAAGCAAUAUUACGGAAU were, in that order, -2.11 ± 0.18 and -2.38 ± 0.36. Consider UUCAAGCAAUAUUACGUUGU, for which the “self-splicing fitness (ln)” value was -3.87 ± 0.19 (30 °C) and -1.34 ± 0.12 (37 °C). In the same order, the values of AACCAGCAAUAUUACGCCAU are -2.81 ± 0.15 and -1.42 ± 0.11. For GGGUAGCAAUAUUACGGGAA, the “self-splicing fitness (ln)” value (30 °C) was -3.91 ± 0.42 and the “self-splicing fitness (ln)” value (37 °C) is -1.86 ± 0.27. The like results for CCGAAGCAAUAUUACGGUGG were, in that order, -4.27 ± 0.24 and -1.35 ± 0.11. The like results for GAGCAGCAAUAUUACGGCGC were, in that order, -0.751 ± 0.12 and 0.209 ± 0.17. In the same order, the values of CCAGAGCAAUAUUACGCCCG are -2.01 ± 0.26 and -1.17 ± 0.37. Turning to ACACAGCAAUAUUACGACCA, the “self-splicing fitness (ln)” value was -0.337 ± 0.085 (30 °C) and 0.147 ± 0.093 (37 °C). Take GGUAAGCAAUAUUACGACAA: the “self-splicing fitness (ln)” value (30 °C) was -0.393 ± 0.1 and the “self-splicing fitness (ln)” value (37 °C) was -0.112 ± 0.16.

In the case of AUUCAGCAAUAUUACGAACA, the “self-splicing fitness (ln)” value (30 °C) was -0.36 ± 0.099 and the “self-splicing fitness (ln)” value (37 °C) is -0.341 ± 0.11. The like results for CAAAAGCAAUAUUACGGUGU were, in that order, -4.34 ± 0.22 and -2.36 ± 0.19. As to GGAAAGCAAUAUUACGCCAU, the “self-splicing fitness (ln)” value was -1.76 ± 0.18 (30 °C) and -0.946 ± 0.31 (37 °C). In the case of CAACAGCAAUAUUACGAAAG, the “self-splicing fitness (ln)” value was -0.908 ± 0.053 (30 °C) and 0.316 ± 0.079 (37 °C). For UGGGAGCAAUAUUACGCUUG, the “self-splicing fitness (ln)” value is, setting by setting: (30 °C) -1.62 ± 0.23; (37 °C) 0.249 ± 0.23. In the same order, the values of AACAAGCAAUAUUACGGUCG are -0.247 ± 0.08 and -0.152 ± 0.086.

As to CGUCAGCAAUAUUACGUAGU, the “self-splicing fitness (ln)” value runs as follows: (30 °C) -2.26 ± 0.12; (37 °C) -1.24 ± 0.13. In the same order, the values of CUGUAGCAAUAUUACGGUGG are -3.05 ± 0.14 and -1.49 ± 0.11. The like results for AACAAGCAAUAUUACGCGCC were, in that order, -0.296 ± 0.15 and -0.317 ± 0.18.

GUCCAGCAAUAUUACGCACU: the “self-splicing fitness (ln)” value reads like this: (30 °C) -1.58 ± 0.082; (37 °C) 0.818 ± 0.11. Consider AAAGAGCAAUAUUACGCGGG, for which the “self-splicing fitness (ln)” value is -4.16 ± 0.28 (30 °C) and -3.54 ± 0.33 (37 °C). In the same order, the values of GCUCAGCAAUAUUACGCGCC are -2.16 ± 0.14 and -1.92 ± 0.17. In the same order, the values of UCCCAGCAAUAUUACGGAGU are -0.413 ± 0.053 and -0.504 ± 0.066. The like results for CUGCAGCAAUAUUACGUGAA were, in that order, -4.94 ± 0.45 and -3.45 ± 0.23. For the sequence CACGAGCAAUAUUACGAGCG, the “self-splicing fitness (ln)” value was -0.857 ± 0.086 (30 °C) and -1.33 ± 0.1 (37 °C). In the same order, the values of UACAAGCAAUAUUACGGUGC are -3.55 ± 0.26 and -2.35 ± 0.21.

The values are drawn from the supplement of paper PMC7877785.
